Data taken from PMC7085636, “A Graphene-PEDOT:PSS Modified Paper-Based Aptasensor for Electrochemical Impedance Spectroscopy Detection of Tumor Marker”.

Molecular target: carcinoembryonic antigen (CEA) (UniProt P06731 35-685)
Assay: electrochemical impedance spectroscopy (aptasensor); PBS; linear 0.77-14 ng/mL, LOD 0.45 ng/mL, saturated above 21 ng/mL; PBS pH 7.4 or undiluted human serum; surface blocked with 1% BSA; K3[Fe(CN)6] and KCl listed as reagents; binding temperature not stated
Conditions: protein: commercial

Chain of carcinoembryonic antigen (CEA) (P06731 35-685): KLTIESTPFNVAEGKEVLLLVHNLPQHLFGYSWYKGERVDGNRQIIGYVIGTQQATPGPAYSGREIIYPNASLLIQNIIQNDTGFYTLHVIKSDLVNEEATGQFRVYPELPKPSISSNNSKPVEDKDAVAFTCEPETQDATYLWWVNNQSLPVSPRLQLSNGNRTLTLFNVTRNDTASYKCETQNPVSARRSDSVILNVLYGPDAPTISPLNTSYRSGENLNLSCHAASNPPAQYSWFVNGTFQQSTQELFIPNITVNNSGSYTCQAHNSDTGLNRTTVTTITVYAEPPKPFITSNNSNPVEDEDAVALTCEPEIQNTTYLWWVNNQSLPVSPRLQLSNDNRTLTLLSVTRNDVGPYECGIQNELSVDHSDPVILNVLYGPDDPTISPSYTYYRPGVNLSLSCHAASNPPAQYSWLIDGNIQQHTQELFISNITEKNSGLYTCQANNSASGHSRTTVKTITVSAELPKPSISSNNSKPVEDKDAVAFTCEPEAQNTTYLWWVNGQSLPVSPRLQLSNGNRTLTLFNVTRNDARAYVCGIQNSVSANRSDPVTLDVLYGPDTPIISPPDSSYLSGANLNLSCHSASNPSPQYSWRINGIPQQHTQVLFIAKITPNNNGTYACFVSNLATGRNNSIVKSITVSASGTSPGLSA

Q: Does GACGATAGCGGTGACGGCACAGACGTCCCGCATCCTCCG (ssDNA, 5'-NH2) [CEA DNA aptamer] bind?
A: binds
